This is an account of results in patent CN114835815A (NINGBO SAIPO BIOTECHNOLOGY CO LTD, dated 2022).

Assay [1] concerns the target 人源PGI蛋白 (human pepsinogen I from human gastric mucosa, Lee Biosolutions, cat. 440-50) (human) (UniProt P0DJD8). Briefly: indirect ELISA, human-derived PGI coated at 2 ug/mL, culture supernatant diluted 50-fold. (An ELISA detects its analyte on a solid surface through an enzyme-linked reagent.)
Assay [2] deals with T1, 重组PGI蛋白 (recombinant pepsinogen I protein, expressed in HEK293 cells) (Homo sapiens (Human), UniProt P0DJD9 16-388, limits assumed).
T1 construct: Immunogen and ELISA coating antigen; also called PGI重组蛋白; 重组蛋白
Briefly: indirect ELISA screen of hybridoma supernatants on coated recombinant PGI.

Chain of UniProt P0DJD8 (P0DJD8 16-388): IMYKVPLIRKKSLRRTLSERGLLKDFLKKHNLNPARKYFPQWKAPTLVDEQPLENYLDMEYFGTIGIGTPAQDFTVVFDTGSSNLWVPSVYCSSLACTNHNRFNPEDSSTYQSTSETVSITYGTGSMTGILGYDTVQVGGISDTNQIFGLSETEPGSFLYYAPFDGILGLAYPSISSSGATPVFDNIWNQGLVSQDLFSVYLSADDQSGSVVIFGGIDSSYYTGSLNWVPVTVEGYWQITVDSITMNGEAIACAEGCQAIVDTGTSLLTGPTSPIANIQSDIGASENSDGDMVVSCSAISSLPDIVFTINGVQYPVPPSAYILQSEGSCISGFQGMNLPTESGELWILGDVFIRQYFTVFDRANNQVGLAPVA
T1 sequence (P0DJD9 other isoform, or with tags, fused parts or gaps limits assumed): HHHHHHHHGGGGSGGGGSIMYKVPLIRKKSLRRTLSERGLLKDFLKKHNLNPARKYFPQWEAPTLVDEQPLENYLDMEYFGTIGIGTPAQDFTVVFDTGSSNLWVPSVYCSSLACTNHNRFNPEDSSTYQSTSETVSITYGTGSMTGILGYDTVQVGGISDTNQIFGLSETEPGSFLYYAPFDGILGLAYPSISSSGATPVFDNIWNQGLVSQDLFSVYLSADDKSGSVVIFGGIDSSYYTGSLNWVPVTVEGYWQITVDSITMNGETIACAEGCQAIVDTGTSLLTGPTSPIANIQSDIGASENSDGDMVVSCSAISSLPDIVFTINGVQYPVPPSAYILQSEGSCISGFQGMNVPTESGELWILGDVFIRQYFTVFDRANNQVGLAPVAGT

B1: 鼠单克隆抗体36A2 (antibody, V domains shown)
VH: EIQLQQSGPELVKPGASVKVSCKASGYSFTDYNIYWVKQGHGESLEWIGYIDPYNGDTDYNQKFKDRSTLTVDKSSNTAFMHLNSLTSEDSAVYYCARSRNYYGSSFAYWGQGTLVTVSA
VL: DVLMTQTPLSLPVSLGDQASISCRSSQAIVHGNGNTYLEWSLQKPVHSPKLLIFKVSNRFSGVPDRFSGSGSGTDFTLKISRVEAEDLGVYYCFQGSHVPPTFGGGTKLEIK
B1 showed an OD450 in assay [1] of 2.04 OD450.

B2: 鼠单克隆抗体3D9 (antibody, V domains shown)
VH: QVQLQQSGAELAKPGAAVKMSCKASGYTFTSHWMHWVNQRPGQGLEWIGYINPTTGYSEYNQKFKDKATMTADKSSSTAYMHLRSLTSEDSAVYYCARGAYYYGSSRFDYWGQGTTLTVSS
VL: DVLMTQTPLSLPVSLGDQASISCRSSQTIVHTNGNTYLEWYLQKPGQSPKLLIYKVSNRFSGVPDRFSGSGSGTDFTLKISRVEAEDLGVYYCFQGSHVPWTFGGGTKLEIK
notes: Mouse monoclonal antibody from a hybridoma; also called 第一单抗
In the case of B2, the binding result in assay [2] was “binds”. Also, the OD450 in assay [1] came out at 1.87 OD450.
